The source of these data is patent US20050048060A1, “Immunoconjugates” (priority 2002, published 2005).

One data set has as its system LS 174T tumor xenografts. Briefly: Conjugate localization (125I labeled conjugate biodistribution) in nude mice bearing LS 174T tumor xenografts. The conditions noted are these: mouse, in vivo, iv, 1 mg/kg. The procedure:
FIG. 4: Pharmacokinetics of cAb-CEA5::βL and the nonbinding control cAb-Lys3::βL in nude mice (three animals/group). βL conjugate levels in subcutaneous LS 174T colon carcinoma tumors and in normal tissues are shown at 6 hours, 24 hours and 48 hours post-administration. cAb-Lys3::βL served as nonbinding control.
Studies were undertaken in nude mice to establish the extent of cAb-CEA5::β-lactamase conjugate localization in LS 174T tumor xenografts. ^125I labeled cAb-CEA5::β-lactamase (4,728,481 cpm/μg conjugate) or cAb-Lys3::β-lactamase conjugate (2,691,621 cpm/μg conjugate) were injected i.v. (1 mg/kg) into mice (3 animals/group) that had subcutaneous LS 174T carcinoma tumors of about 0.5-1 cm diameter. The amount of radioactivity in the tumors, blood, and several other tissues was determined 6 hours, 24 hours and 48 hours later (FIG. 4). […] In order to see whether the radioactivity measured originated from intact conjugate molecules or degraded material, the enzymatic activity of β-lactamase in targeted tumor, liver and kidney tissue using nitrocefin was assessed. […]
The cAb-CEA::βL conjugate was radioiodinated with carrier-free ^125I using the IODOGEN reagent, following the manufacturer's (Pierce, Rockford, Ill., US) recommended method. […] The tumor, a sample of blood, and a range of other tissues were removed, weighed, and counted in a gamma counter.

Another data set deals with LS 174T xenografts. Briefly: Anti-tumor effect of the prodrug therapy in nude mice with LS 174T xenografts. The conditions noted are these: conjugate 1 mg/kg i.v. Format: in vivo. The procedure: FIG. 5: Therapeutic effect of cAb::βL/CCM combinations in nude mice with LS 174T xenografts. Conjugates (1 mg/kg) were injected i.v. on days indicated by the arrows, and CCM was administered 24 hours later. The therapeutic effects were compared to those of PDM at the MTD.
The anti-tumor effect of giving cAb-CEA::βL conjugate (1 mg/kg body weight) followed 24 hours later by escalating doses of CCM (100, 150, 200 mg/kg) are shown in FIG. 5. […] Therapeutic efficiency was dose-dependent.
Groups of five female athymic nude mice were injected subcutaneously with 2×10^6 LS 174T tumor cells. Ten days later when the tumors reached a size of about 100 mm^3, 1 mg/kg bodyweight of βL conjugates was injected i.v., followed 24 hours later by the prodrug CCM. Treatment with cAb-βL+CCM was carried out on a weekly schedule for a total of three rounds. The animals were monitored twice a week for general health, weight and tumor growth and compared to control groups receiving no treatment. Tumor volumes were calculated using the formula (longest length×perpendicular width^2)/2.

On the set-up of data set [1]: species or system nude mice. How it is done:
Studies were undertaken in nude mice to establish the extent of cAb-CEA5::β-lactamase conjugate localization in LS 174T tumor xenografts. ^125I labeled cAb-CEA5::β-lactamase (4,728,481 cpm/μg conjugate) or cAb-Lys3::β-lactamase conjugate (2,691,621 cpm/μg conjugate) were injected i.v. (1 mg/kg) into mice (3 animals/group) that had subcutaneous LS 174T carcinoma tumors of about 0.5-1 cm diameter. The amount of radioactivity in the tumors, blood, and several other tissues was determined 6 hours, 24 hours and 48 hours later (FIG. 4). […] A rather high accumulation of both cAb-CEA5::βL and cAb-Lys3::βL conjugates in the kidneys (0.41-0.53% ID/g tissue) was also noticed. In order to see whether the radioactivity measured originated from intact conjugate molecules or degraded material, the enzymatic activity of β-lactamase in targeted tumor, liver and kidney tissue using nitrocefin was assessed. […] The blood and normal tissue levels were still high at this time point and, thus, tumor/normal tissue ratios were low. After 24 hours, although the amounts of cAb-CEA::βL conjugate in the tumors had fallen to approximately 1% injected dose/g tumor, the blood and normal tissue levels had fallen more rapidly and, consequently, tumor/normal tissue ratios were in the 10-50 fold range, except for the kidneys where a high amount of radioactivity could still be measured.

Data set [2] deals with LS 174T human adenocarcinoma cells. Kind of data set: In vitro cytotoxicity assay, [3H] thymidine incorporation, conjugate + CCM prodrug. The conditions noted are these: cells blocked with unconjugated cAb-CEA5 0.1 mg/ml before conjugate. (Incorporation of labelled thymidine or its analogues reports DNA synthesis.)

B1: cAb-CEA5-βL (protein)
chain: QVQLVESGGGSVQAGGSLRLSCAASGDTYGSYWMGWFRQAPGKEREGVAAINRGGGYTVYADSVKGRFTISRDTAKNTVYLQMNSLRPDDTADYYCAASGVLGGLHEDWFNYWGQGTQVTVSSAHHSEDPSSKAPKAPMGTPVSEKQLAEVVANTITPLMKAQSVPGMAVAVIYQGKPHYYTFGKADIAANKPVTPQTLFELGSISKTFTGVLGGDAIARGEISLDDAVTRYWPQLTGKQWQGIRMLDLATYTAGGLPLQVPDEVTDNASLLRFYQNWQPQWKPGTTRLYANASIGLFGALAVKPSGMPYEQAMTTRVLKPLKLDHTWINVPKAEEAHYAWGYRDGKAVRVSPGMLDAQAYGVKTNVQDMANWVMANMAPENVADASLKQGIALAQSRYWRIGSMYQGLGWEMLNWPVEANTVVEGSDSKVALAPLPVAEVNPPAPPVKASWVHKTGSTGGFGSYVAFIPEKQIGIVMLANTSYPNPARVEAAYHILEALQHHHHHH
As for B1, in the data set with LS 174T tumor xenografts, the “amount of conjugate in the tumors” value was “approximately 1 % injected dose/g tumor”. In the data set with LS 174T xenografts (24 hours later CCM 200 mg/kg/injection), the “anti-tumor activity at 200 mg CCM/kg/injection” value is reported as “Significant anti-tumor activity including partial regression of the tumors”. Also, the “anti-tumor effect of the prodrug therapy combination” value with LS 174T xenografts (24 hours later CCM 100, 150, 200 mg/kg, weekly, three rounds, vs non-treated or cAb-Lys3::βL + CCM) is “significant anti-tumor effect”. Further, in data set [1], the “β-lactamase enzymatic activity in excised tumor tissue” value is recorded as “enzymatic activity was intact”, the “β-lactamase enzymatic activity in kidney tissue” value was “no activity could be measured” and the “β-lactamase enzymatic activity in liver tissue” value is recorded as “no activity could be measured”. Further, the “prodrug CCM activation on cells saturated with unconjugated cAb-CEA5” value in data set [2] is “activated CCM at marginal levels”.
